Experimental data: article PMC7939394, “A highly potent CD73 biparatopic antibody blocks organization of the enzyme active site through dual mechanisms” (The Journal of Biological Chemistry, 2020)
One block for each binder: values may come before it.

What was measured:
[1] = molecular target: T1, extracellular domain of human CD73 (residues 27-549) deglycosylated with PNGase F (human, UniProt P21589, deglycosylated with PNGase F; a glycan left at Asn-311); experiment: crystal structure; TB19 Fab::CD73 complex; crystals in 0.1 M sodium potassium phosphate pH 6.2, 35% 5-methyl-2,4-pentanediol, 2.5% pentaerythritol ethoxylate, 4°C; conditions: both partners purified
T1 construct: CD73 (ecto-5'-nucleotidase, NT5E), human, extracellular domain, residues 27-549; Construct used for SEC-MALS and for the two crystal structures; also called ecto-5'-nucleotidase; NT5E; source: ExpiHEK293, purified (nickel column, PNGase F, size-exclusion chromatography)

soluble CD73 dimer = molecular target: T2, soluble CD73 dimer (human, UniProt P21589); experiment: BLI; pre-mix epitope binning: monovalent antibodies on protein A biosensors, 100 nM CD73 alone or with a 4-fold molar excess of Fab; PBS pH 7.4, 0.1% BSA, 0.01% Tween 20, 30°C; conditions: both partners purified
T2 construct: CD73 (ecto-5'-nucleotidase, NT5E), human, soluble form; Also used here as the target of the functional rows, where CD73 stood whole on COR-L23 cells; also called soluble human CD73

TB19/AS30 = experiment: SPR; Biacore T200, 25°C, HBS-EP+ pH 7.4; antibody captured at low density (5-30 RU) on Protein A chips, CD73 at 3, 12 or 32 nM in the flow (5 min association, 30 min dissociation); 1:1 Langmuir binding model
TB19/TB38 = experiment: as above
TB38/AS30 = experiment: as above
[2] = molecular target: the molecule itself; experiment: crystal structure; TB19 Fab::CD73 complex; crystals in 0.1 M sodium potassium phosphate pH 6.2, 35% 5-methyl-2,4-pentanediol, 2.5% pentaerythritol ethoxylate, 4°C
[3] = molecular target: T1, extracellular domain of human CD73 …; experiment: crystal structure; TB38 Fab::CD73 complex; crystals in 1.6 M sodium phosphate monobasic, 0.4 M potassium phosphate dibasic, 0.1 M sodium phosphate citrate pH 5.3, 4°C; conditions: both partners purified

B1: TB19 Fab (Fab, V domains shown)
VH: QEQLQESGPGLVKPSETLSLTCTVSGGSIRNNYYNWIRQPAGKGLEWIGRIYISGTTNSNPSLKSRVTMSIDTSKNQFSLKLSSVTAADTAIYYCAREHYVSGTSLDNWGQGTLVTVSS
VL: EIVMTQSPTTLSLSPGERATLSCRASQSVNTNYFSWYQQKPGLTPRLLIYGTSTRATGIPARFSGSGSGTDFTLTISSLQPEDFGIYYCQQDYNLPYTFGQGTYLEIK
notes: deposited with the structure TB19::CD73, PDB 6VC9 (only the Fv could be built); The methods speak of a 'TB19.3 Fv model' as search model; also called TB19 Fv
binding result [1]: binds
binding result (soluble CD73 dimer): binds

B3: extracellular domain of human CD73 (residues 27-549) deglycosylated with PNGase F (enzyme, UniProt P21589 27-549, looked up)
chain: WELTILHTNDVHSRLEQTSEDSSKCVNASRCMGGVARLFTKVQQIRRAEPNVLLLDAGDQYQGTIWFTVYKGAEVAHFMNALRYDAMALGNHEFDNGVEGLIEPLLKEAKFPILSANIKAKGPLASQISGLYLPYKVLPVGDEVVGIVGYTSKETPFLSNPGTNLVFEDEITALQPEVDKLKTLNVNKIIALGHSGFEMDKLIAQKVRGVDVVVGGHSNTFLYTGNPPSKEVPAGKYPFIVTSDDGRKVPVVQAYAFGKYLGYLKIEFDERGNVISSHGNPILLNSSIPEDPSIKADINKWRIKLDNYSTQELGKTIVYLDGSSQSCRFRECNMGNLICDAMINNNLRHTDEMFWNHVSMCILNGGGIRSPIDERNNGTITWENLAAVLPFGGTFDLVQLKGSTLKKAFEHSVHRYGQSTGEFLQVGGIHVVYDLSRKPGDRVVKLDVLCTKCRVPSYDPLKMDEVYKVILPNFLANGGDGFQMIKDELLRHDSGDQDINVVSTYISKMKVIYPAVEGRIKFS
modifications: deglycosylated with PNGase F; a glycan left at Asn-311
notes: CD73 (ecto-5'-nucleotidase, NT5E), human, extracellular domain, residues 27-549; Construct used for SEC-MALS and for the two crystal structures; also called ecto-5'-nucleotidase; NT5E; source: ExpiHEK293, purified (nickel column, PNGase F, size-exclusion chromatography)
stoichiometry N [2]: 2

Now from value to binder:

Kd (TB19/AS30): 4.18 nM
koff (TB19/AS30): 0.00069 s⁻¹
kon (TB19/AS30): 165000 M⁻¹ s⁻¹
Kd (TB19/TB38): 0.555 nM
koff (TB19/TB38): 0.000102 s⁻¹
kon (TB19/TB38): 184000 M⁻¹ s⁻¹
Kd (TB38/AS30): 0.814 nM
koff (TB38/AS30): 0.000187 s⁻¹
kon (TB38/AS30): 237000 M⁻¹ s⁻¹
B2: soluble CD73 dimer (enzyme)
chain: B3 chain

binding result [3]: binds
B4: TB38 Fab (Fab, V domains shown)
VH: QVQLVESGGGVVQPGRSLRLSCAASGFTFSSYGMHWVRQAPGKGLEWVAVFWYDGSNKYYADSVKGRFTISRDNSKNTLYLQMNSLSAEDTAVYYCARAPNWDDAFDIWGQGTMVTVSS
VL: QTVVTQEPSFSVSPGGTVTLTCGLSSGSVSTSYYPNWYQQTPGQAPRTLIYSTNTRSSGVPDRFSGSILGNKAALTITGAQADDESDYYCVLFMGSGIWVFGGGTKLTVL
notes: deposited with the structure TB38::CD73, PDB 6VCA (full Fab built on the open CD73 dimer); also called TB38 Fv
